Assay results: the supplement of paper PMC7125110
± gives the standard error. For some assays here: This sample holds only a part of the variants without activity.

B1: glmS ribozyme (parent)
chain: AUAAAAGCGCCAGAACUACAGAAAUGUAGUUGACGAGGAGGAGGUUUAUCGAAUUUUCGGCGGAUGCCUCCAAA

Assays:
Conditions in all cases: with glucosamine-6-phosphate
[1] = variants of: B1; assay: kcat; higher = faster cleavage; RNA array
Summary of the method: (§1)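 The measurements used barcoded ribozyme variants on sequenced MiSeq chips, transcribed in situ by E. coli RNA polymerase and tracked at 37 °C with a hybridised Cy3 probe. Glucosamine-6-phosphate, 40 μM to 10 mM in HEPES/KCl/Mg(OAc)2 buffer, was flowed in while tiles were imaged over ~14 h. Baseline-normalised signals, also normalised to non-cleaving reference variants, gave per-tile medians that were fit to one- or two-exponential decays for kobs. kcat and KM resulted from weighted Michaelis–Menten fits across concentrations.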

[2] = variants of: B1; assay: self-cleavage kobs at 40 uM GlcN6P; higher = faster cleavage; RNA array
Summary of the method: as §1

[3] = variants of: B1; assay: self-cleavage kobs at 160 uM GlcN6P; higher = faster cleavage; RNA array
Summary of the method: as §1

[4] = variants of: B1; assay: self-cleavage kobs at 640 uM GlcN6P; higher = faster cleavage; RNA array
Summary of the method: as §1

[5] = variants of: B1; assay: self-cleavage kobs at 2500 uM GlcN6P; higher = faster cleavage; RNA array
Summary of the method: as §1

[6] = variants of: B1; assay: self-cleavage kobs at 10000 uM GlcN6P; higher = faster cleavage; RNA array
Summary of the method: as §1

[7] = variants of: B1; assay: KM; higher = weaker cofactor use; RNA array
Summary of the method: as §1

Variant	kcat [1] [s⁻¹]	self-cleavage kobs at 40 uM GlcN6P [2] [s⁻¹]	self-cleavage kobs at 160 uM GlcN6P [3] [s⁻¹]	self-cleavage kobs at 640 uM GlcN6P [4] [s⁻¹]	self-cleavage kobs at 2500 uM GlcN6P [5] [s⁻¹]	self-cleavage kobs at 10000 uM GlcN6P [6] [s⁻¹]	KM [7] [µM]
AUAAAAGCGCCAGAACUACAGAAAUGUAGUUGACGAGGAGGAGGUUAAUCGAAUCUUCGGCGGAUGCCUCCAAA [U47A U55C]	0.0198 ± 0.0084	0.000537 ± 8.5e-05	0.00116 ± 0.00033	0.00441 ± 0.0013	0.0089 ± 0.0023	0.024 ± 0.0055	
AUAAAUGCGCCAGAACUACAGAAAUGUAGUUGACGAGGAGGAGGUUUAUCGAAUUUUCAGCGGAUGCCUCCAAA [A6U G59A]	< 1e-05	< 1e-05		< 1e-05			
AUAAAGGCGCCAGAACUACAGAAAUGUAGUUGACGAGGAGGAGGUUUAUCGACAUUUCGGCGGAUGCCUCCAAA [A6G A53C U54A]	5.34e-05 ± 9e-06	< 1e-05	< 1e-05		5.76e-05 ± 1.9e-05	4.91e-05 ± 9.2e-06	
AUAAAAGCGCCAGAACUACAGAAAUGUAGUUGACGAGGAGGAGGAUUCUCGAAUUUUCGGCGGAUGCCUCCAAA [U45A A48C]	0.000559 ± 7.1e-05			0.000131 ± 2.3e-05	0.000382 ± 8.1e-05	0.000445 ± 5.6e-05	2130 ± 560
AUAAAAGCGCAAGAACUACAGAAAUGUAAUUGACGAGGAGGAGGUUUAUCGAAUUUUCGGCGGAUGCCUCCAAA [C11A G29A]	3.97e-05 ± 1.6e-06					3.17e-05 ± 9.4e-06	2550 ± 350
AUAAAAGCGCCAGAACUACAGAAAUGUAGGUGACGAGGAGGAGGUUUAUCGAAUUUUCGACGGAUGCCUCCAAA [U30G G60A]	1.25e-05 ± 1.8e-06	< 1e-05	< 1e-05				
AUAAAAGCGCCAGAACUACAGAAAUGUAGUUGACGAGGGCGAGGUUUAUCGAAUUUUCGGCGGAUGCCUCCAAA [A39G G40C]	9.61e-05 ± 1.3e-05			4.2e-05 ± 1.4e-05	0.000101 ± 1.8e-05	8.35e-05 ± 1.4e-05	
AUAAAAGCGCCAGAACUACAGAAAUGUAGUAGACGAGGAGGAGGUUUGUCGAAUUUUCGGCGGAUGCCUCCAAA [U31A A48G]	2.21e-05 ± 4.8e-06				3.3e-05 ± 1.1e-05	1.74e-05 ± 7.5e-06	
AUAAAAGCGCCAGAACUACAGAAAUGUAGUUGACGAGGAGGGGGUUUAGCGAAUUUUCGGCGGAUGCCUCCAAA [A42G U49G]	0.00144 ± 0.00033	5.36e-05 ± 2.3e-05	5.71e-05 ± 1.4e-05	0.000275 ± 4.4e-05	0.000609 ± 9.7e-05	0.0011 ± 0.00017	3190 ± 1100
AUAAAAGCGCCAGAACUACAGAAAUGUAGUUGACGAGGAGGAGGUUAAUCGAAUUUUCGGCGGAUGGCUCCAAA [U47A C67G]	0.000644 ± 7e-05		5.63e-05 ± 9.9e-06	0.000147 ± 1.3e-05	0.000379 ± 5.1e-05	0.000534 ± 6.4e-05	2020 ± 350
AUAAAAGCGCCAGAACUACAGAAAUGUAGUUGACGAGGAGGAGGUUAAUCGAAUUUUCGGCGGAUGCCUACAAA [U47A C70A]	0.000263 ± 6.7e-05		3.52e-05 ± 1.2e-05	0.000122 ± 1.9e-05	0.000186 ± 3.4e-05		858 ± 410
AUAAAAGCGCCAGAACUACAGAAAUGUAGUUGACGAGGAUGAGGUUUAUCGAAUUUUCGGCGGAUGCCCCCAAA [G40U U69C]	8.37e-05 ± 1.1e-05			6.56e-05 ± 2e-05	9.26e-05 ± 1.9e-05	7.39e-05 ± 1.2e-05	
AUAAAAGCGCCAGAACUACAGAAAUGUAGUUGACGAGGAGGAGGUUUAUCGAACUUUCGGCGGCUGCCUCCAAA [U54C A64C]	0.000257 ± 3.3e-05			3.19e-05 ± 1e-05	0.000124 ± 2e-05	0.000185 ± 2.1e-05	3560 ± 1000
AUAAAAGCGCCAGAACUACAGAAAUGUAGUUGACGAGGAGGAGGUUUUUCGAACUUUCGGCGGAUGCCUCCAAA [A48U U54C]	0.000526 ± 0.00015			5.32e-05 ± 1.7e-05	0.000255 ± 5.1e-05	0.000349 ± 6.3e-05	
AUAAAAGUGCCAGAACUACAGAAAUGUAGUUGACGAGGAGGAGGUUUAACGAAUUUUCGGCGGAUGCCUCCAAA [C8U U49A]	< 1e-05	< 1e-05		< 1e-05	< 1e-05	< 1e-05	
AUAAAAGCGCCAGAACUACAGAAAUGUAGUUGACGAGGAGGAGGUUUAUCGAAUGUUCCGCGGAUGCCUCCAAA [U55G G59C]	1.2e-05 ± 2.5e-06						
AUAAAAGCGCCGGAACUACAGAAAUGUAGUUGACGAGGUGGAGGUUUAUCGAAUUUUCGGCGGAUGCCUCCAAA [A12G A39U]	0.000523 ± 9.7e-05			6.01e-05 ± 1.2e-05	0.000246 ± 4.1e-05	0.00035 ± 4.6e-05	4350 ± 1400
